Substitutions are numbered along the chain they refer to. One block for each binder: values may come before it.
Key:
human TNFR2 [1] = biological target: T1, human TNFR2 (human, UniProt P20333 23-461); assay: binding to human TNFR2 CHO cells, IgG format
T1 construct: expressed on the surface of CHO cells; also called HuTNFR2; TNFRSF1B
T1 sequence: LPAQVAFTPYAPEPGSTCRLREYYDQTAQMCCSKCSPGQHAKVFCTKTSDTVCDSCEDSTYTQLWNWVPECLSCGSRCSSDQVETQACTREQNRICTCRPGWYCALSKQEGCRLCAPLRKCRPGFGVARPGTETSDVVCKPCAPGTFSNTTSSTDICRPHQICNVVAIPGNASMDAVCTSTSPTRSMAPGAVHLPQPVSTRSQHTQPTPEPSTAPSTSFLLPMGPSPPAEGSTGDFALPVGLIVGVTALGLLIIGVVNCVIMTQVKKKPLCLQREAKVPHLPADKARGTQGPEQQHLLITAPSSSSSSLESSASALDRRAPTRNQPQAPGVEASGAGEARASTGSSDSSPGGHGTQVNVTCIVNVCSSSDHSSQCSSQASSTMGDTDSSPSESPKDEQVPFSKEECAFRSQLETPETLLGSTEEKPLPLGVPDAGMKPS

human TNFR2 [2] = biological target: T1, human TNFR2; assay: binding to human TNFR2 CHO cells, IgG format; IgG format, light chain Q89L, Y91K
human TNFR2 [3] = biological target: T1, human TNFR2; assay: binding to human TNFR2 CHO cells, IgG format; IgG format, light chain Q89L

EC50 (human TNFR2 [1]): 0.67 nM
B1: GBT-TNFR2-1765 (antibody, human IgG2, kappa, V domains shown)
VH: QVQLVQSGAEVKKPGASVKVSCKVSGFSFPSSGVDWVRQAPGQGLEWLGVTWGVGSTHYNQKFQGRVTITKDTSKSTVYMELSSLRSEDTAVYYCASGEWDEGFVYWGQGTLVTVSS
VL: DIQLTQSPSFLSASVGDRVTITCKASQNVGTAVAWYQQKPGKAPKLLIYAASTLQSGVPSRFSGSGSGTEFTLTISSLQPEDFATYYCQQYSSYPLTFGGGTKVEIKR

EC50 (human TNFR2 [2]): 1.63 nM
B2: IgG 2204 (antibody, V domains shown)
VH: B1 VH
VL: B1 VL with Q89L, Y91K
notes: IgG

EC50 (human TNFR2 [3]): 0.43 nM
B3: IgG2205 (antibody, V domains shown)
VH: B1 VH
VL: B1 VL with Q89L
notes: IgG

Source: patent US20230406951A1 (Pfizer, published 2023)
